Assay results from patent US10766960 (dated 2020).
Where a chain is given by its changes, count along the chain named. “And” between values parts separate entries of the source, which are not always exact repeats. Equal values may be shown once. One block for each binder: values may come before it.

Tests used:
Assay in all cases: SPR
FcgRIIIa F = FcgRIIIa F (human, UniProt P08637)
FcgRIIa H = biological target: T1, FcgRIIa H (human, UniProt P12318)
T1 chain: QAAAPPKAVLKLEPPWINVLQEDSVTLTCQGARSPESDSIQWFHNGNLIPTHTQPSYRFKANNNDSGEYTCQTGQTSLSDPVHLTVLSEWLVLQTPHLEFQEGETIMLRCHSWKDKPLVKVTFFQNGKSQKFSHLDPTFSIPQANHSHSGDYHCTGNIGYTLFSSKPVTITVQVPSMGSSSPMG

FcgRIIa R = biological target: T2, FcgRIIa R (human, UniProt P12318)
T2 chain: T1 chain with H134R

FcgRIa = biological target: T3, FcgRIa (human, UniProt P12314)
T3 chain: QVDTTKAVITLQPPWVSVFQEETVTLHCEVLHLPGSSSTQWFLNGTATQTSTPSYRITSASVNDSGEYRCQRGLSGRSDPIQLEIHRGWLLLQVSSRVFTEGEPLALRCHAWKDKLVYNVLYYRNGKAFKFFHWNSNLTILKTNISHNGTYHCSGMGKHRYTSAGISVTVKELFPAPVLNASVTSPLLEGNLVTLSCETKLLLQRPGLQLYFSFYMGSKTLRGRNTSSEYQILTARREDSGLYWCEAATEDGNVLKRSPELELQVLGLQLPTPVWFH

FcgRIIb = biological target: T4, FcgRIIb (human, UniProt P31994)
T4 chain: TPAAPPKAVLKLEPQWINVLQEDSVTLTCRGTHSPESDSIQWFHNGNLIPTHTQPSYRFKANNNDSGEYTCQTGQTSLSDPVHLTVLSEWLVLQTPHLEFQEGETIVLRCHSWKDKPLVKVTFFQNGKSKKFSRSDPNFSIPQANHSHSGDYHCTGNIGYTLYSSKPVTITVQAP

FcgRIIIa V = FcgRIIIa V (human, UniProt P08637)
FcgRIIIa V, sequence (P08637 17-208 F176V): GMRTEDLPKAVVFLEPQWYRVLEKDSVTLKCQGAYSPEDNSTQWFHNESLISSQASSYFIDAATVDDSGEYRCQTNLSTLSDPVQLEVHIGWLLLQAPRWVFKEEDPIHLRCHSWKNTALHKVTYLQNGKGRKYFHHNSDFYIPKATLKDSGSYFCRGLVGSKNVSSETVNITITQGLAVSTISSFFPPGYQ

FcgRIIIa F, sequence (P08637 17-208): as the sequence (P08637 17-208 F176V) above, with V160F counted along it

Kd (FcgRIIIa F): 3.9 nM and 4.8 nM
Kd (FcgRIIa H): 85 nM
Kd (FcgRIIa R): 260 nM and 250 nM
Kd (FcgRIa): 0.082 nM and 0.12 nM
Kd (FcgRIIb): 1500 nM
Kd (FcgRIIIa V): 1.2 nM and 1.4 nM
B1: H240-FA030/H240-FB059/L73-k0 (antibody)
chain 1: QDQLVQSGAEVKKPGASVKVSCKASGFNIKDTYIQWVRQAPGQGLEWMGRIDPLRKQTKYREKFEGRVTITADTSTNTAYMELSSLRSEDTAVYYCVRSGREFDYWGQGTLVTVSSASTKGPSVFPLAPSSKSTSGGTAALGCLVKDYFPEPVTVSWNSGALTSGVHTFPAVLQSSGLYSLSSVVTVPSSSLGTKTYTCNVNHKPSNTKVDKKVEPKSCDKTHTCPPCPAPEYYWGPSVFLFPPKPKDTLMISRTPEVTCVVVDVSDEEPKVKFNWYVDGVEVHNAKTKPREEQYNATYRVVSVLTVLHQDWLNGKEYKCKVSNKALPAPIEKTISKAKGQPREPQVYTLPPSRKEMTKNQVSLTCLVKGFYPSDIAVEWESNGQPENNYKTTPPVLDSDGSFFLYSKLTVDKSRWQQGNVFSCSVMHEALHNRYTQKSLSLSP
chain 2: QDQLVQSGAEVKKPGASVKVSCKASGFNIKDTYIQWVRQAPGQGLEWMGRIDPLRKQTKYREKFEGRVTITADTSTNTAYMELSSLRSEDTAVYYCVRSGREFDYWGQGTLVTVSSASTKGPSVFPLAPSSKSTSGETAALGCLVEDYFPEPVTVSWNSGALTSGVHTFPAVLQSSGLYSLSSVVTVPSSSLGTQTYICNVNHKPSNTKVDKKVEPKSCDKTHTCPPCPAPELLGGPSVFLFPPKPKDTLMISRTPEVTCVVVDVSHEEPEVQFNWYVDGVEVHNAETKPREEQYNSTYRVVSVLTVLHQDWLNGKEYKCKVSNDALPMPIEETISKAKGQPREPQVYTLPPSREEMTKNQVSLTCLVKGFYPSDIAVEWESNGQPENNYKTTPPVLDSDGSFFLYSKLTVDKSRWQQGNVFSCSVMHEALHNHYTQESLSLSP
chain 3: DIQMTQSPSSLSASVGDRVTITCRASQDIHKYIAWYQQKPGQAPRLLIQYTSTLQPGVPSRFSGSGSGTDYTFTISSLQPEDIATYYCLQYEQLRTFGGGTKVEIKRTVAAPSVFIFPPSDEQLKSGTASVVCLLNNFYPREAKVQWKVDNALQSGNSQESVTEQDSKDSTYSLSSTLTLSKADYEKHKVYACEVTHQGLSSPVTKSFNRGEC

Kd (FcgRIIIa F): 6.3 nM
Kd (FcgRIIa H): 110 nM
Kd (FcgRIIa R): 350 nM
Kd (FcgRIa): 0.076 nM
Kd (FcgRIIb): 1700 nM
Kd (FcgRIIIa V): 1.5 nM
B2: H240-FA012/H240-FB001/L73-k0 (antibody)
chain 1: B1 chain 1 with T198I
chain 2: B1 chain 2 with E137G, E146K, E287K
chain 3: B1 chain 3

Kd (FcgRIIIa F): 3 nM
Kd (FcgRIIa H): 61 nM
Kd (FcgRIIa R): 230 nM
Kd (FcgRIa): 0.11 nM
Kd (FcgRIIb): 1400 nM
Kd (FcgRIIIa V): 0.84 nM
B3: H240-FA009/H240-FB017/L73-k0 (antibody)
chain 1: B1 chain 1 with T198I, K271E
chain 2: B1 chain 2 with G136E, E137G, E146K, N202D, E287K
chain 3: B1 chain 3

Kd (FcgRIIIa F): 5 nM
Kd (FcgRIIa H): 86 nM
Kd (FcgRIIa R): 280 nM
Kd (FcgRIa): 0.1 nM
Kd (FcgRIIb): 1400 nM
Kd (FcgRIIIa V): 1.3 nM
B4: H240-FA012/H240-FB056/L73-k0 (antibody)
chain 1: B1 chain 1 with T198I
chain 2: B1 chain 2 with G136E, E137G, N202D
chain 3: B1 chain 3

Kd (FcgRIIIa F): 3.7 nM
Kd (FcgRIIa H): 70 nM
Kd (FcgRIIa R): 280 nM
Kd (FcgRIa): 0.051 nM
Kd (FcgRIIb): 2200 nM
Kd (FcgRIIIa V): 0.78 nM
B5: H240-FA009/H240-FB021/L73-k0 (antibody)
chain 1: B1 chain 1 with T198I, K271E
chain 2: B1 chain 2 with E137G, E146K
chain 3: B1 chain 3

Kd (FcgRIIIa F): 5 nM
Kd (FcgRIIa H): 95 nM
Kd (FcgRIIa R): 300 nM
Kd (FcgRIa): 0.15 nM
Kd (FcgRIIb): 1700 nM
Kd (FcgRIIIa V): 1.4 nM
B6: H240-FA024/H240-FB065/L73-k0 (antibody)
chain 1: B1 chain 1 with M357K
chain 2: B1 chain 2 with G136E, E137S, E146K, S191N, L192F, I198T, N202D, K213T
chain 3: B1 chain 3

Kd (FcgRIIIa F): 4.4 nM
Kd (FcgRIIa H): 93 nM
Kd (FcgRIIa R): 290 nM
Kd (FcgRIa): 0.089 nM
Kd (FcgRIIb): 1600 nM
Kd (FcgRIIIa V): 1.3 nM
B7: H240-FA024/H240-FB059/L73-k0 (antibody)
chain 1: B1 chain 1 with M357K
chain 2: B1 chain 2
chain 3: B1 chain 3

Kd (FcgRIIIa F): 3.9 nM
Kd (FcgRIIa H): 69 nM
Kd (FcgRIIa R): 240 nM
Kd (FcgRIa): 0.078 nM
Kd (FcgRIIb): 1300 nM
Kd (FcgRIIIa V): 1.4 nM
B8: H240-FA021/H240-FB083/L73-k0 (antibody)
chain 1: B1 chain 1 with K271E, M357K, V396K
chain 2: B1 chain 2 with G136E, E137S, S191N, L192F, I198T, N202D, K213T
chain 3: B1 chain 3

Kd (FcgRIIIa F): 4.6 nM
Kd (FcgRIIa H): 99 nM
Kd (FcgRIIa R): 340 nM
Kd (FcgRIa): 0.1 nM
Kd (FcgRIIb): 2400 nM
Kd (FcgRIIIa V): 1.1 nM
B9: H240-FA030/H240-FB065/L73-k0 (antibody)
chain 1: B1 chain 1
chain 2: B1 chain 2 with G136E, E137S, E146K, S191N, L192F, I198T, N202D, K213T
chain 3: B1 chain 3

Kd (FcgRIIIa F): 3.9 nM
Kd (FcgRIIa H): 82 nM
Kd (FcgRIIa R): 280 nM
Kd (FcgRIa): 0.081 nM
Kd (FcgRIIb): 1500 nM
Kd (FcgRIIIa V): 1.2 nM
B10: H240-FA030/H240-FB083/L73-k0 (antibody)
chain 1: B1 chain 1
chain 2: B1 chain 2 with G136E, E137S, S191N, L192F, I198T, N202D, K213T
chain 3: B1 chain 3

Kd (FcgRIIIa F): 4.2 nM
Kd (FcgRIIa H): 77 nM
Kd (FcgRIIa R): 230 nM
Kd (FcgRIa): 0.06 nM
Kd (FcgRIIb): 1600 nM
Kd (FcgRIIIa V): 1.5 nM
B11: H240-FA021/H240-FB082/L73-k0 (antibody)
chain 1: B1 chain 1 with K271E, M357K, V396K
chain 2: B1 chain 2 with N383E
chain 3: B1 chain 3

Kd (FcgRIIIa F): 5.3 nM
Kd (FcgRIIa H): 96 nM
Kd (FcgRIIa R): 290 nM
Kd (FcgRIa): 0.057 nM
Kd (FcgRIIb): 1800 nM
Kd (FcgRIIIa V): 1.5 nM
B12: H240-FA030/H240-FB064/L73-k0 (antibody)
chain 1: B1 chain 1
chain 2: B1 chain 2 with G136E, E137S, E146K, S191N, L192F, I198T, N202D, K213T, E287K
chain 3: B1 chain 3

Kd (FcgRIIIa F): 4.2 nM
Kd (FcgRIIa H): 84 nM
Kd (FcgRIIa R): 330 nM
Kd (FcgRIa): 0.093 nM
Kd (FcgRIIb): 1800 nM
Kd (FcgRIIIa V): 1.3 nM
B13: H240-FA009/H240-FB015/L73-k0 (antibody)
chain 1: B1 chain 1 with T198I, K271E
chain 2: B1 chain 2 with G136E, E137G, E146K, E287K
chain 3: B1 chain 3

Kd (FcgRIIIa F): 3.4 nM
Kd (FcgRIIa H): 69 nM
Kd (FcgRIIa R): 270 nM
Kd (FcgRIa): 0.079 nM
Kd (FcgRIIb): 1200 nM
Kd (FcgRIIIa V): 1.1 nM
B14: H240-FA020/H240-FB082/L73-k0 (antibody)
chain 1: B1 chain 1 with K271E, M357K
chain 2: B1 chain 2 with N383E
chain 3: B1 chain 3

Kd (FcgRIIIa F): 4.3 nM
Kd (FcgRIIa H): 72 nM
Kd (FcgRIIa R): 270 nM
Kd (FcgRIa): 0.051 nM
Kd (FcgRIIb): 1400 nM
Kd (FcgRIIIa V): 0.89 nM
B15: H240-FA009/H240-FB052/L73-k0 (antibody)
chain 1: B1 chain 1 with T198I, K271E
chain 2: B1 chain 2 with E137G, E146K, K213T, E287K
chain 3: B1 chain 3

Kd (FcgRIIIa F): 4.6 nM
Kd (FcgRIIa H): 80 nM
Kd (FcgRIIa R): 240 nM
Kd (FcgRIa): 0.13 nM
Kd (FcgRIIb): 1500 nM
Kd (FcgRIIIa V): 1.3 nM
B16: H240-FA024/H240-FB082/L73-k0 (antibody)
chain 1: B1 chain 1 with M357K
chain 2: B1 chain 2 with N383E
chain 3: B1 chain 3

Kd (FcgRIIIa F): 4.4 nM
Kd (FcgRIIa H): 74 nM
Kd (FcgRIIa R): 270 nM
Kd (FcgRIa): 0.05 nM
Kd (FcgRIIb): 1700 nM
Kd (FcgRIIIa V): 1.1 nM
B17: H240-FA009/H240-FB047/L73-k0 (antibody)
chain 1: B1 chain 1 with T198I, K271E
chain 2: B1 chain 2 with E137G, E146K, E287K, N383E
chain 3: B1 chain 3

Kd (FcgRIIIa F): 3.4 nM
Kd (FcgRIIa H): 80 nM
Kd (FcgRIIa R): 310 nM
Kd (FcgRIa): 0.12 nM
Kd (FcgRIIb): 1600 nM
Kd (FcgRIIIa V): 1 nM
B18: H240-FA009/H240-FB033/L73-k0 (antibody)
chain 1: B1 chain 1 with T198I, K271E
chain 2: B1 chain 2 with E146K, E287K
chain 3: B1 chain 3

Kd (FcgRIIIa F): 3.5 nM
Kd (FcgRIIa H): 77 nM
Kd (FcgRIIa R): 250 nM
Kd (FcgRIa): 0.038 nM
Kd (FcgRIIb): 1300 nM
Kd (FcgRIIIa V): 1.3 nM
B19: H240-FA020/H240-FB059/L73-k0 (antibody)
chain 1: B1 chain 1 with K271E, M357K
chain 2: B1 chain 2
chain 3: B1 chain 3
